We go through one molecule from PMC10245680 (bioRxiv, 2023).

For assay [1], the target named is recombinant murine uracil DNA glycosylase (UNG) (Mus musculus, UniProt P97931). Description: ELISA. On the technique in general: An ELISA detects its analyte on a solid surface through an enzyme-linked reagent.
In assay [2] the target is viral UNG (vUNG) expressed in transfected 293 cells (Murid herpesvirus 4 (MHV68), isolate …, UniProt P88984). Description: immunostaining of cells or tissue.
Assay [3] deals with vUNG expressed in MHV68-infected 3T12 cells (Murid herpesvirus 4 (MHV68 wild type …, UniProt P88984)). Description: flow cytometry on cells. (In general: A flow cytometer gives signals particle by particle.)

Sequence of recombinant murine uracil DNA glycosylase (UNG) (P97931 whole entry): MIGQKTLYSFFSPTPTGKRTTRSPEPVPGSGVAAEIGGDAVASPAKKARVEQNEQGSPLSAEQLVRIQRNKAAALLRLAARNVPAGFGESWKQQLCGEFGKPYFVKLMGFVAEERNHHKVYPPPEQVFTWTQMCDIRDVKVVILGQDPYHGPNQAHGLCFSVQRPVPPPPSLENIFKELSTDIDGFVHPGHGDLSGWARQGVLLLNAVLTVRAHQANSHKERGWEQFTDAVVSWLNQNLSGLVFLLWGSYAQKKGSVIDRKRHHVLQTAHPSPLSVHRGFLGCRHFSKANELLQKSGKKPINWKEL

B1: recombinant mouse anti-vUNG antibody (against MHV68 ORF46 / viral uracil DNA glycosylase) (antibody, V domains shown)
VH: QVQLQQPGAELVKPGASVKMSCKASGYTFTSYWITWVKQRPGQGLEWIGDIYPGSGSTKYNEKFKSKATLTVDTSSSTAYMQLSSLTSEDSAVYYCARLDYYYAMDYWGQGTSVTVSS
VL: DIVMTQSQKFMSTSVGDRVSVTCKASQNVGTNVAWYQQKPGQSPKALIYSASYRYSGVPDRFTGSGSGTDFTLTISNVPSEDLAEYFCQQYNNYPLTFGSGTKLEIK
In the case of B1, the binding result is “no binding” in assay [1], “binds” in assay [2] and “binds” in assay [3].
